Reference: patent US20130046257A1, “METHODS OF USING AGENTS THAT MODULATE CLAUDIN EXPRESSION” (priority 2010, published 2013)
Several values for one entry are separate records, joined by “and”; a condition that tells them apart may be missing. Equal values may be shown once.

Tested on: HSV-1 strain F
Test: HSV-1 fluorescent-focus assay in siRNA transfected PHK
Format: cell-based, human
Settings: siRNA 100 nM
Protocol: Infection studies were performed using the highly virulent HSV-1 strain F (provided by Dr. D.C. Johnson). Twenty-four to 48 h post-transfection with 100 nM claudin-1 or control siRNA, the cells were differentiated in DMEM with 10% heat-inactivated FBS for 24 h. Cells were washed twice with HBSS and infected with HSV-1 strain F at a multiplicity of infection (MOI) of 0.1 in DMEM containing 1% heat-inactivated FBS at 37° C., with rocking every 15 min. After 2 h, the viral inoculum was removed, and the cells were washed 2× with HBSS and incubated in DMEM containing 5% HI-FBS and 0.4% human-γ-globulin (Sigma; final concentration 0.5 mg/ml) for 24 hr to neutralize any extracellular virus.
HSV-infected PHK were washed 2× with PBS and fixed in 4% formaldehyde/PBS for 20 min at room temperature. A polyclonal rabbit anti-HSV-1 (Dako) antibody diluted 1:500 in PBS/1% BSA was placed on the PHK for 1 h at 37° C. followed by Alexa Fluor 488 donkey-anti-rabbit IgG H+L (1:1000, Molecular Probes) and 4′,6-diamidino-2-phenyl-indole, dihydrochloride (DAPI) (1:10,000, Molecular Probes). Coverslips were mounted onto slides with SlowFade (Molecular Probes). […] Images were stored in Portable Network Graphics (PNG) format and analyzed computationally to objectively quantify differences in focal forming units (FFU). […] Cell density was calculated by counting the number of DAPI labeled nuclei, assigned to the blue channel. Images were analyzed using MATLAB to enumerate FFU, and total cell number. […]
The MOI was chosen based on findings from viral titration (0.01 to 10 MOI) studies on differentiated and undifferentiated PHK, respectively, used as negative and positive controls. […] For each sample, six random fields were captured at identical acquisition settings and analyzed computationally to objectively quantify differences in focal forming units (FFU). […] An average of 4.8±0.7 FFU/field were counted in CLDN1 knockdown PHK, while only 2.5±0.5 FFU/field were detected in the control cells (P=0.05; n=6; FIG. 15C). Adapted Fluorospot software was used to semi-quantify differences in dimensions of each FFU. […]

B1: CLDN1 siRNA: claudin-1 siRNA (h), Santa Cruz; a pool of 3 separate strands, SEQ ID NO: 10-15 (nucleic acid)
chain 1: UACAUAGGCAUAGUUCAUGNN
chain 2: CAUGAACUAUGCCUAUGUANN
chain 3: AACGUAUGCAGUUAAUUCCNN
chain 4: GGAAUUAACUGCAUACGUUNN
chain 5: UGAAGAUCUAUGUAUGUGGNN
chain 6: CCACAUACAUAGAUCUUCANN
modifications: chemistry not given here
B1 was tested, and the “HSV-1 focal forming units” value (HSV-1 MOI 0.1, 24 h, n=6) was 4.8±0.7 FFU/field, the FFU area (HSV-1 MOI 0.1, n=6) was 15649±4367 pixels and the “diameter of the major axis of FFU” value (HSV-1 MOI 0.1, n=6) was 207±22 μm and 207±21 μm.
